For five molecules, OD450 and MFI results are on record in patent EP4725966A1, “HUMAN EPIDERMAL GROWTH FACTOR 3 ANTIBODY, PREPARATION METHOD THEREFOR, AND USE THEREOF” (priority 2023, dated 2024).

Sequences and labels used below:
B1: mHE1 (antibody, V domains shown)
VH: EVKLQESGPGLVKPSQSLSLTCSVTGYSITSGYYWNWIRQFPGNKLEWMGYISYDGSNNYNPSLKNRISITRDTSKNQFFLNLNSVTTEDTATYYCARVDWDGDAMDYWGQGTSVTVSS
VL: DIVLTQSPASLAVSLGQRATISCRASESVDNYGIRLMHWYQQKSGQPPKLLIHRASNLESGIPARFSGSGSRTDFTLTINPVETDDVATYYCQQSNKDPFTFGSGTKLEIKR
B2: mHE2 (antibody, V domains shown)
VH: B1 VH with N82K, V99M
VL: B1 VL with R35S, S44P, H53Y, F100P, S104A, I110L
B3: mHE5 (antibody, V domains shown)
VH: B1 VH with K3Q, N82K, R98S, V99Y, W101Y, A105W, M106F, D107A, S114L, S119A
VL: B1 VL with N31H, I34S, R35S, L36F, S44P, H53Y, L58P, F100P, S104G
B4: mHE4 (antibody, V domains shown)
VH: EVQLVESGGGLVKPGGSLKLSCAASGFTFSSYVMSWVRQTPEKRLEWVATISDGDSSTYYPDNVKGRFTISRDNAKNNLFLQMSHLKSEDTAMYFCARDKGHGYDEGAFVYWGQGTLVTVSA
VL: DIQMTQSPASLSASVEETVTITCRASENIYSYLAWYQQKQGKSPQLLVYNAKTLAEGVPSRFSGSGSGTEFSLKINSLQPEDFGSYYCQNHYGTPYTFGGGTKLEIKQ
B5: mHE6 (antibody, V domains shown)
VH: EVQLQQSGPDLVKPGTSVKMSCKASGYTFTDYYMHWVRQSHGKSLEWIGYINPNNGDAIYNQKFKGKATLTVNKSSTTAYMALRSLTSEDSAVYFCATYDYGGDFYFDVWGTGTTVTVSS
VL: DIELTQSPALMSASPGEKVTMTCSASSSVSYMYWYQQKPRSSPKPWIYLTSNLASGVPARFSGSGSGTSYSLTISSMEAEDAATYYCQQWSRNPLTFGAGTKLELKR

Residue numbers refer to the chain shown, from its start.

cynomolgus HER3-ECD-His (cynomolgus monkey), sequence (G7PIG5 entry or part of it): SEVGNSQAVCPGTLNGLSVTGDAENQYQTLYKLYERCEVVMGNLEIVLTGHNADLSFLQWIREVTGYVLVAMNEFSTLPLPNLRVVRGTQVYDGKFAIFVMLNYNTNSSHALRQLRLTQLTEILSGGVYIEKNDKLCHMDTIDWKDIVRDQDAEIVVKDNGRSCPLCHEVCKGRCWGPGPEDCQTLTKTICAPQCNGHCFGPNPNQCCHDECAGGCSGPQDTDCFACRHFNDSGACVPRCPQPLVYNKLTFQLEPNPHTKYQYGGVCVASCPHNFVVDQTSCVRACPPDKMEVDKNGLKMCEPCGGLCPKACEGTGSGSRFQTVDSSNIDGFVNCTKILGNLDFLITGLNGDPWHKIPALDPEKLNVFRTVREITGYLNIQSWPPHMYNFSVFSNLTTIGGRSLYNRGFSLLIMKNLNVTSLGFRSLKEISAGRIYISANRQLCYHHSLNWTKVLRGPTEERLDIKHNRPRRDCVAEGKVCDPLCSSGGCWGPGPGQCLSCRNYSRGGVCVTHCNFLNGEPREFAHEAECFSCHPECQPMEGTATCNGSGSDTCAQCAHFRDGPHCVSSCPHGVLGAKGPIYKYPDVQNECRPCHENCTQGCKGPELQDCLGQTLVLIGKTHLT

One assay addresses cynomolgus HER3-ECD-His (cynomolgus monkey) (UniProt G7PIG5). The assay is described as follows: ELISA on coated Cyno HER3. Background: In an ELISA, binding on a coated surface is turned into a signal by an enzyme label.
In turn, B1 had an OD450 of 1.77 OD450.
With B2, the OD450 is 1.77 OD450.
Take B3: the OD450 is 1.82 OD450.
B4 registered an OD450 of 1.87 OD450.
On to B5, for which the OD450 was 1.51 OD450.

A further assay addresses human HER3-ECD-His (human) (UniProt P21860). The assay is described as follows: ELISA on coated human HER3.
B1 had an OD450 of 1.86 OD450.
The molecule B2 registered an OD450 of 1.96 OD450.
Molecule B3 came in with an OD450 of 1.9 OD450.
B4: the OD450 stood at 2.07 OD450.
Turning to B5, the OD450 is 2.12 OD450.

A further assay has as its target human HER3 on cells (human) (UniProt P21860). The assay is described as follows: FACS on Human HER3-CHO cells.
Molecule B1 had an MFI of 173 MFI.
In turn, B2 had an MFI of 195 MFI.
With B3, the MFI is 224 MFI.
B4 yielded an MFI of 199 MFI.
Regarding B5, the MFI was 205 MFI.
